{
  "source": "the DeepSol protein solubility set",
  "data": [
    {"assay": "soluble on expression in E. coli; label from the status in PepcDB or PDB records", "values": [
      {"sequence": "MAHHHHHHMSATPPPPPPPSSNASTGYPHTRASPGTYRGAGRGAYSRGPSYQSSGSSPSSSPIYTSGPSRRGGGNTRVRVHTYGFVHADPAASLAAAPPASHTSAPRATPDVATPPLPSASSAASPPLSSISSDVLSSLNASVQESLSGYLYTDAIELAQRLFDLEASYAHLHLLAHCYTVSGATGTAYRLLQHYYPFLELHVTRPRTAGASTSAAGGAAGGVGSGVLPFDARRTWTASYGVHPSQHPFSSGMPSATAAVTFSASSNENNLTSDEFELGYETVDLQSQWDCQYLLGVCCYRTQHYEDGARVLSQLLYVCHQVTTTSSVLRRRLQQLRQQQQQVTVRSDTSEEDDAGVAAAVRATERQLAGLCLRDGGAHFAGALLVGSVREASPAAPDRG", "soluble on expression in E. coli": "not soluble"},
      {"sequence": "MAHHHHHHMHSSPSKKKDLSNGACPAKEKEASKRKQSFNDVELEIDDDIITHLSSRICNKNVTHKILKINNLIDDQMHDYIANGRASEISESNDESDAHEGVERAHLNLRNGYAGCQHGDESSSNTISNDLPERKAISSEQVPTYELNKEVQGKSKAKGKGKGKGELLSDDPHLEEPLAEGHTHFDRIKMMNLLGENTIVYNSRDDQNNVLFLCYDEKSEQCDVCDRYRKNYMSNMHPSSCVPLRGGAAMKGDAAINGNAPINGVAATNGAAAINGTAAIDALSDYFFVLGSTSNSRKYILKQSSLDFLSVRIHIDEKKIGCRKSHDPLTLTANIAVGKGLKLLNMIKTDSELSKQIAELSKGKKVVLLVGDEVIYCNNKIYEKPKNEKEASNFLKSYNNSKCYSYSSITLIELETEKIITGIDESIINVYDMDDSVVKKILDDSSIYFCAGALKIENTHMHRYIKVIKGNIDSIFGLSLNLLFHLVNFL", "soluble on expression in E. coli": "not soluble"},
      {"sequence": "METTSVFRADFLSELDAPAQAGTESAVSGVEGLPPGSALLVVKRGPNAGSRFLLDQAITSAGRHPDSDIFLDDVTVSRRHAEFRLENNEFNVVDVGSLNGTYVNREPVDSAVLANGDEVQIGKFRLVFLTGPKQGEDLEHHHHHH", "soluble on expression in E. coli": "not soluble"},
      {"sequence": "MQIIRRLMFVVALICPLITQAEPQVAKLYQRELTRNSYAIGGLNAPVALFAAQVHQESQWNVTALSHVGAQGLAQFMPQTANWIATQYPELKTNQPFNPSWALRALVRYDYWLYQRIHAVTDCDRWAFALSAYNGGLGWVQRDKRKARIQGLDPMSYWHAVESVNSGRSRANFIENRGYPKRIIYRWQPLYLHWGNSVCLDD", "soluble on expression in E. coli": "not soluble"},
      {"sequence": "MSERAYNFNAGPAALPLEVLERAQAEFVDYQHTGMSIMEMSHRGAVYEAVHNEAQARLLALLGNPTGYKVLFIQGGASTQFAMIPMNFLKEGQTANYVMTGSWASKALKEAKLIGDTHVAASSEASNYMTLPKLQEIQLQDNAAYLHLTSNETIEGAQFKAFPDTGSVPLIGDMSSDILSRPFDLNQFGLVYAGAQKNLGPSGVTVVIVREDLVAESPKHLPTMLRYDTYVKNNSLYNTPPSFGIYMVNEVLKWIEERGGLEGVQQANRKKASLIYDAIDQSGGFYRGCVDVDSRSDMNITFRLASEELEKEFVKASEQEGFVGLKGHRSVGGLRASIYNAVPYESCEALVQFMEHFKRSRG", "soluble on expression in E. coli": "soluble"},
      {"sequence": "MGSDKIHHHHHHMKMKGIESLKEIFKYGAFSLPVANYLLCEGNIPGDCKRILDVLKLAWKGNFKEAIRRADKAVENSRSETAKYFLLANKLAFLKYTGKTDVNLYRYLKRNLPKMSKSIRDTVIVTLINFEASGIKPLRKVRVWKNDYRKSTLSFLYLSLARREADSGRLSEAVHDYIQAYRLSREVPHPTCIVSSLNDLAWDIREKHPKLAHALSQGAVFWLGYYREEPGNLFGALDTLFVVEKDMDSPSIHSTAHIIVSLPVPEDYLSLLKKAKKFVLDYTGSTYPNTSQLRRYVEKVAWKGKTLSSKGISDILKGKTKMIRADTIRKLLTSGVDTGAPFPVWNEWIKMEIERKYRESSEKLKELPFHQRQILFLTTYMALLDREFLSRKEKLKKAYTLLEDIESFADFMAKDHRTMEFVVSMVKAHPFVEGRKEAVKRALARMKRKRLERFVLRYIEMKESDRKLLDRFLRNYGRYDGVRFGIRLKGPEVVREFAKKYSLKVQPLFAAFWCEEDGRVRRRLERVLKHMVLYNLIEIAILFVMVEK", "soluble on expression in E. coli": "not soluble"},
      {"sequence": "MSLAFVCLAIGCLYTFLISTTFGCTSSSDTEIKVNPPQDFEIVDPGYLGYMYLQWQPPLSLDHFKECTVEYELKYRNIGSETWKTIITKNLHYKDGFDLNKGIEAKIHTMLPWQCTNGSEVQSSWAETTYWISPQGIPETKVQDMDCVYYNWQYLLCSWKPGIGVLLDTNYNLFYWYEGLDHALQCVDYIKADGQNIGCRFPYLEASDYKDFYICVNGSSENKPIRSSYFTFQLQNIVKPLPPVYLTFTRESSCEIKMKWSIPLGPIPARCFDYEIEIREDDTTLVTATVENETYTLKTTNETRQLCFVVRSKVNIYCSDDGIWSEWSDKQCWEGEDLSKKTEGHHHHHH", "soluble on expression in E. coli": "not soluble"},
      {"sequence": "MSLHPADFIEKPPRFPVVDGHVDLVYDLMRRHPGIPFEQVADGQVTAQSLKKGGVWVLVAALYCADSHNGPASAAREMRRLHDYACRYLEWFALLRSPGEMAAALGGSGPPGIVFLVENADALLELDLDEVRRWGVRAVGLTHAGRNRLADGNGVTDPKGLTAAGKSLVRSIAGAGLILDVAHLAEPGFREVASLVTGPLISSHTGLRSFCDRPRNLSDPQVAEIARRGGVVGISAAPEMLVPGGTATLDDLFRQVDHVVQRHGPEAVGIGSDFGGFDDTAKGAEDHGGLPLLAERLLGAGYPAGAVGLIMGGNWCRIYGGIEGHHHHHH", "soluble on expression in E. coli": "soluble"},
      {"sequence": "MAHHHHHHMSEAAALESIMRPPSPELQRRLFVPTPSLHASAETARQHRAERQSALLAERATAYTCHPAILPVSREMAASERRRNGWMQLPVGDVLMERHKRVEGHLEEKRQQEVARFSFRPTISARARTMQSSRPVVERLYSGTADAGTDTATFTDVTNLRSSSGEKTKTASMATYQRLYQDAVTRRAHDQMQEKLARVRSKNEFCPCTDSVSGLIASKRGDTTRERLLRPKAALDVARDVYPQETFAPRINTSTRFERVPLSARAAIWQRRRSERLHHAVVARCEVEMRECTFHPRTRRGLTALSQAHARATADSYTGPLASIMSSAEELLRRVDLEASAPLPESGRCAPLLDDDGKLPGTVPVDILAVLHEAEHVSEALRLLPDTNLDLDLSQHTSLG", "soluble on expression in E. coli": "not soluble"},
      {"sequence": "ENGRYEYIVIGSEAAGVGLVRELTAAGKKVLAVDKSKEKIELLEDEGFDAVIADPTDESFYRSLDLEGVSAVLITGSDDEFNLKILKALRSVSDVYAIVRVSSPKKKEEFEEAGANLVVLVADAVKQAFMDKIKKMETL", "soluble on expression in E. coli": "not soluble"},
      {"sequence": "MDKVLDSALLSSANKRKGILAIGAHPDDIELGCGASLARLAQKGIYIAAVVMTTGNSGTDGIIDRHEESRNALKILGCHQTIHLNFADTRAHLQLNDMISALEDIIKNQIPSDVEIMRVYTMHDADRHQDHLAVYQASMVACRTIPQILGYETPSTWLSFMPQVFESVKEEYFTVKLAALKKHKS", "soluble on expression in E. coli": "soluble"},
      {"sequence": "MGSDKIHHHHHHMTNTLKTSYQKTPYKLGGNGPRNVGVLTEALQNIDDNSESDIYGNGAVIENFETKIAKILGKQSAVFFPSGTMAQQIALRIWADRKENRCVAYHPLSHLEIHEQDGLKELQQITPILLGTANRLLTIDDIKSLREPVSSVLIELPQREIGGQLPSFEELEEISEYCHEQGISLHLDGARLWEIMPFYQKSAEDICSLFDSVYVSFYKGIGGIAGAILAGNADFVQEAKIWKRRYGGDLISLYPYILSADYYFEKRIGKMAEYFEAAKGLAERFNSCPGLKTVPEVPISNMFHVYFEKSADEVGTILTKIQDETGVGISGYLQEKSADVCAFEVSVGDAFAEIPTKDLESAFECLEKELRL", "soluble on expression in E. coli": "not soluble"},
      {"sequence": "MKAASYGVPFQSHFGLISTIRGNDGLPRVVVFFQSHFGLISTVKIVEVLEKDEALSIPFWSDFNCHLQMDQRIRLAFFQSHFGLISTGTLQTSGTNANFLSIPFWSDFNLELLKRIKKTKMLFQSHFGLISTRNMVWGRSELQRAIFQSHFGLISTQSSQLTMPVKMQTFNPILV", "soluble on expression in E. coli": "not soluble"},
      {"sequence": "KSPVREPVDNLSPEERDARTVFCMQLAARIRPRDLEDFFSAVGKVRDVRIISDRNSRRSKGIAYVEFCEIQSVPLAIGLTGQRLLGVPIIVQASQAEKNRL", "soluble on expression in E. coli": "soluble"},
      {"sequence": "MGSDKIHHHHHHMSLPLRSIHYFVEVARCESFSLAAERLHVSQSAVSHQVALLEGYLGDDLFVRRGRKILLTAVGENYFNEVAGAINAIEGATANVRQYDTRQVKLAVHGSLAVKWLIPALDEFRQRYPNVELTLQMLTQDGNFDTQWADCFITTQPPGMGYQRYHLYDETLKPYCSKALWAEAHRLESAGDLIQYPLLSAISAFASGEPGTDWQRWFKKANLRLPVSARVHHFSHLLLAAEAAKYGQGIALLNEFMTTEQEREESLFELPFHSIQTDDSFYFVYPSSTAKSPGLESLGDWLVALCRTRH", "soluble on expression in E. coli": "not soluble"},
      {"sequence": "MSTQFKLPLASPLTHGREDFAVSPSNGEAVARLDAWPDWAEGRLVLVGPAGCGKSHLARAWAAAAGAVVVEAANPDAASVDLSALRGRAVLVEDADRRAQGAAVSDEALFHILNMAGVDGGTVLLTGRTAPLTWSAEVADLRSRLNALSVAEIAEPDDAVLEAVLRRAFAAAWWKPEPDLYPYLLARLPRSAAEAQAAAALLAEAAADGRRELTKALAREVLEGFEGDEGLEHHHHHH", "soluble on expression in E. coli": "not soluble"},
      {"sequence": "GSPEFEFKQKYDYFRKKLKKPADIPNRFEMKLHRNNIFEESYRRIMSVKRPDVLKARLWIEFESEKGLDYGGVAREWFFLLSKEMFNPYYGLFEYSATDNYTLQINPNSGLCNEDHLSYFTFIGRVAGLAVFHGKLLDGFFIRPFYKMMLGKQITLNDMESVDSEYYNSLKWILENDPTELDLMFCIDEENFGQTYQVDLKPNGSEIMVTNENKREYIDLVIQWRFVNRVQKQMNAFLEGFTELLPIDLIKIFDENELELLMCGLGDVDVNDWRQHSIYKNGYCPNHPVIQWFWKAVLLMDAEKRIRLLQFVTGTSRVPMNGFAELYGSNGPQLFTIEQWGSPEKLPRAHTAFNRLDLPPYETFEDLREKLLMAVENAQGFEGVD", "soluble on expression in E. coli": "soluble"},
      {"sequence": "MGSDKIHHHHHHMAGDIIVRNKFCDISKVRFRKWDEIDVIFWKFGKSNPERKSGGYYLNAYKDAYIQYNKERIIKYANQAGILPELLGGVAWIESGGMPEEYKFQVFEIKRFLKLKSSPENKTSFGSVAMQIQVAARTLGLNPDILTTRDQLELATCLMEDDFNLWIVAQHLRDMILYDYPSVAALYLTDEQYMMAGIRYNRGIQRKLSEFIRFIDAKPERGSAEFDYISYGVRLLQIRNHIRKLLELNT", "soluble on expression in E. coli": "not soluble"},
      {"sequence": "MTYRVLDPNAQEGSPTEVLVRMYSHPQLRRLYADTEACYTTALADSITGEMRAAFERLRVSDPQMAIPRYVAFHVSGLQQSVVAVPDLVSVSIDKYIRPDYPVYLQFFSEYARQTMSPEYVVRDAVLGWICSERPLPRETVLTLRFQLEYWGDIYRLMKQVFPQASDEWLFGFTSDQLLWMKQNRKILLDNALKRGEMESSQPTVTDRYFKELPPDQLLPPEAPRLIGHWLGTNL", "soluble on expression in E. coli": "not soluble"},
      {"sequence": "MAHHHHHHMPSSSKKQNVVTFSEVHDPLYGMLSPLSPSPLVVRHVQYPSLHHYFLCERFKGSPAEQWMAEATTVWSLERLVKTAEEEGYQRHNWNKVKVDVMLLGTYFKFKQNEAARAVLLSTQPSLLLYHTPTDDFWGDGGDGKGKNVLGVVSMAVRARLHSEEERQKQRPPASGRHSKSAAAKSPALPATRT", "soluble on expression in E. coli": "soluble"},
      {"sequence": "MSLNNKVIKKEVEEYLSRYFEGKDNYNKRVYESMNYSLNAGGKRVRPLLLLASYAIYNKDYKEVIDIAAAIEMIHTYSLIHDDLPCMDNDDLRRGRPTNHKIFGYSIALLAGDGLLNEAMNIMFKYCIGKGEEALKACLMISKAASSDGMIGGQVVDILSEGKKINEDELRYMHKKKTGELIKAAVVSGAILGGAPLHDVELLSQYGDKLGLAFQIEDDILDIIGDTKIMGKTSKSDLENDKCTYVTLYGIDKCKSICRELTDECLDIIGKIQGNTELLKEITELLLKRNREGHHHHHH", "soluble on expression in E. coli": "soluble"}
    ]}
  ]
}
